Data reported in the supplement of paper PMC9112550, “Optimization of the antimicrobial peptide Bac7 by deep mutational scanning” (BMC Biology, 2022).

Test system: Escherichia coli TOP10
Test: shrunken log2 fold change of peptide-encoding DNA abundance (4.5 h post-induction vs induction); higher = less antimicrobial activity (less host growth inhibition)
Conditions: time post-induction: 4.5 h; library: site-saturation at positions 5, 18, 19, 20
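Note: peptides expressed intracellularly from a pBAD plasmid library in pooled LB shake-flask culture, induced with 0.3% L-arabinose, DNA abundance read by NGS, three biological replicates, DESeq2 with apeglm shrinkage.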

Sequence	shrunken log2 fold change
RRIRMRPPRLPRPRPRPRHQPRP	0.155
RRIRHRPPRLPRPRPRPIPKPRP	-0.0389
RRIRDRPPRLPRPRPRPYEKPRP	-0.191
RRIRVRPPRLPRPRPRPYNMPRP	-0.979
RRIRTRPPRLPRPRPRPDNHPRP	-1.07
RRIRSRPPRLPRPRPRPSYHPRP	-0.836
RRIRGRPPRLPRPRPRPANAPRP	0.694
RRIRKRPPRLPRPRPRPDGSPRP	0.132
RRIRTRPPRLPRPRPRPQIGPRP	-0.0138
RRIRQRPPRLPRPRPRPFHFPRP	-0.0115
RRIRCRPPRLPRPRPRPDVGPRP	-0.0874
RRIRDRPPRLPRPRPRPTYPPRP	-0.106
RRIRPRPPRLPRPRPRPYVQPRP	-0.147
RRIRRRPPRLPRPRPRPFDSPRP	-0.21
RRIRVRPPRLPRPRPRPMYMPRP	-0.748
RRIRTRPPRLPRPRPRPKSDPRP	-0.146
RRIRNRPPRLPRPRPRPNMLPRP	-0.772
RRIRDRPPRLPRPRPRPLTYPRP	-0.339
RRIRHRPPRLPRPRPRPDFGPRP	-0.156
RRIRGRPPRLPRPRPRPFYVPRP	0.0462
RRIRNRPPRLPRPRPRPYLSPRP	-0.169
RRIRIRPPRLPRPRPRPFNWPRP	-0.155
RRIRCRPPRLPRPRPRPMDGPRP	0.013
RRIRQRPPRLPRPRPRPREGPRP	0.151
RRIRLRPPRLPRPRPRPIKVPRP	-0.135

Sequence	shrunken log2 fold change
RRIRKRPPRLPRPRPRPIFTPRP	0.118
RRIRIRPPRLPRPRPRPGPFPRP	-0.239
RRIRFRPPRLPRPRPRPTKQPRP	0.0621
RRIRHRPPRLPRPRPRPCGGPRP	-0.0282
RRIRHRPPRLPRPRPRPFVFPRP	-0.0736
RRIRNRPPRLPRPRPRPPQGPRP	0.192
RRIRERPPRLPRPRPRPEIVPRP	0.00903
RRIRFRPPRLPRPRPRPEECPRP	-0.0175
RRIRTRPPRLPRPRPRPGKTPRP	-0.0222
RRIRKRPPRLPRPRPRPDMVPRP	-0.00254
RRIRERPPRLPRPRPRPFILPRP	-0.784
RRIRQRPPRLPRPRPRPRIIPRP	0.00299
RRIRFRPPRLPRPRPRPHGVPRP	-0.0563
RRIRCRPPRLPRPRPRPPVSPRP	0.134
RRIRTRPPRLPRPRPRPACLPRP	-0.217
RRIRARPPRLPRPRPRPWNEPRP	-0.19
RRIRSRPPRLPRPRPRPYSSPRP	-0.271
RRIRDRPPRLPRPRPRPKGAPRP	0.368
RRIRQRPPRLPRPRPRPAKSPRP	-0.0281
RRIRQRPPRLPRPRPRPMSRPRP	-0.0221
RRIRARPPRLPRPRPRPGMKPRP	0.186
RRIRERPPRLPRPRPRPGPQPRP	0.231
RRIRCRPPRLPRPRPRPSQHPRP	-0.114
RRIRMRPPRLPRPRPRPWHRPRP	-0.0718
RRIRLRPPRLPRPRPRPYIHPRP	-1.05

Sequence	shrunken log2 fold change
RRIRNRPPRLPRPRPRPAYWPRP	0.0638
RRIRERPPRLPRPRPRPSDRPRP	-0.165
RRIRARPPRLPRPRPRPKQHPRP	0.312
RRIRSRPPRLPRPRPRPEFMPRP	0.135
RRIRARPPRLPRPRPRPPQHPRP	0.655
RRIRMRPPRLPRPRPRPMKQPRP	0.0424
RRIRTRPPRLPRPRPRPWWGPRP	0.221
RRIRPRPPRLPRPRPRPVPSPRP	0.448
RRIRKRPPRLPRPRPRPQYTPRP	-0.156
RRIRNRPPRLPRPRPRPYICPRP	-0.0343
RRIRERPPRLPRPRPRPLVPPRP	-0.182
RRIRGRPPRLPRPRPRPSCAPRP	1.08
RRIRMRPPRLPRPRPRPYMGPRP	-0.0411
RRIRMRPPRLPRPRPRPKICPRP	-0.155
RRIRNRPPRLPRPRPRPQWMPRP	-0.0995
RRIRQRPPRLPRPRPRPFEEPRP	-0.138
RRIRFRPPRLPRPRPRPNFQPRP	-0.272
RRIRRRPPRLPRPRPRPEVQPRP	-0.00368
RRIRERPPRLPRPRPRPMTCPRP	-0.00926
RRIRARPPRLPRPRPRPFMMPRP	-0.105
RRIRARPPRLPRPRPRPGVLPRP	0.2
RRIRIRPPRLPRPRPRPFVYPRP	-0.625
RRIRMRPPRLPRPRPRPRTVPRP	0.472
RRIRARPPRLPRPRPRPTTYPRP	-0.0877
RRIRGRPPRLPRPRPRPTLAPRP	1.27

Sequence	shrunken log2 fold change
RRIRHRPPRLPRPRPRPMDMPRP	0.0881
RRIRPRPPRLPRPRPRPEEWPRP	-0.0099
RRIRLRPPRLPRPRPRPYEDPRP	-0.125
RRIRCRPPRLPRPRPRPHAQPRP	0.0778
RRIRLRPPRLPRPRPRPFEEPRP	0.127
RRIRTRPPRLPRPRPRPYISPRP	-0.382
RRIRLRPPRLPRPRPRPLHNPRP	-0.0106
RRIRLRPPRLPRPRPRPYVSPRP	-0.0356
RRIRHRPPRLPRPRPRPNQLPRP	-0.154
RRIRRRPPRLPRPRPRPWQAPRP	0.0707
RRIRDRPPRLPRPRPRPEMNPRP	0.128
RRIRCRPPRLPRPRPRPMHCPRP	-0.107
RRIRDRPPRLPRPRPRPPRDPRP	0.771
RRIRVRPPRLPRPRPRPRMHPRP	0.151
RRIRHRPPRLPRPRPRPKWCPRP	-0.142
RRIRFRPPRLPRPRPRPHHMPRP	0.335
RRIRHRPPRLPRPRPRPTTEPRP	-0.0115
RRIRLRPPRLPRPRPRPHMNPRP	-0.686
RRIRIRPPRLPRPRPRPHPLPRP	-0.516
RRIRNRPPRLPRPRPRPLNDPRP	-0.0316
RRIRARPPRLPRPRPRPENNPRP	0.263
RRIRMRPPRLPRPRPRPGCSPRP	0.815
RRIRTRPPRLPRPRPRPMYLPRP	-0.518
RRIRHRPPRLPRPRPRPSLEPRP	0.0392
RRIRWRPPRLPRPRPRPKHGPRP	0.186

Sequence	shrunken log2 fold change
RRIRSRPPRLPRPRPRPAAYPRP	0.269
RRIRKRPPRLPRPRPRPSKFPRP	-0.16
RRIRGRPPRLPRPRPRPCFVPRP	0.319
RRIRQRPPRLPRPRPRPAHDPRP	-0.161
RRIRKRPPRLPRPRPRPNPDPRP	0.383
RRIRNRPPRLPRPRPRPSQTPRP	-0.00249
RRIRERPPRLPRPRPRPKRQPRP	-0.0958
RRIRPRPPRLPRPRPRPEYFPRP	-0.185
RRIRSRPPRLPRPRPRPLMRPRP	0.948
RRIRKRPPRLPRPRPRPPFVPRP	0.209
RRIRNRPPRLPRPRPRPDKLPRP	-0.168
RRIRPRPPRLPRPRPRPQCMPRP	-0.312
RRIRQRPPRLPRPRPRPPEDPRP	0.0255
RRIRWRPPRLPRPRPRPCMDPRP	-0.18
RRIRMRPPRLPRPRPRPNSCPRP	-0.0381
RRIRKRPPRLPRPRPRPGHIPRP	-0.0657
RRIRGRPPRLPRPRPRPLLYPRP	0.473
RRIRNRPPRLPRPRPRPEEIPRP	-0.000921
RRIRTRPPRLPRPRPRPYYEPRP	-0.0557
RRIRVRPPRLPRPRPRPQRVPRP	0.0942
RRIRERPPRLPRPRPRPLAKPRP	0.0848
RRIRERPPRLPRPRPRPRSLPRP	-0.0254
RRIRVRPPRLPRPRPRPHEFPRP	-0.0515
RRIRIRPPRLPRPRPRPRYIPRP	-0.242
RRIRRRPPRLPRPRPRPNCHPRP	-0.0432

Sequence	shrunken log2 fold change
RRIRHRPPRLPRPRPRPWKVPRP	-0.0338
RRIRVRPPRLPRPRPRPYGGPRP	-0.374
RRIRGRPPRLPRPRPRPNHGPRP	-0.178
RRIRSRPPRLPRPRPRPCISPRP	-0.0391
RRIRHRPPRLPRPRPRPRCEPRP	0.149
RRIRIRPPRLPRPRPRPWMIPRP	-0.0493
RRIRWRPPRLPRPRPRPNCGPRP	0.192
RRIRLRPPRLPRPRPRPKPRPRP	0.729
RRIRQRPPRLPRPRPRPVTCPRP	0.0138
RRIRLRPPRLPRPRPRPAITPRP	-0.252
RRIRQRPPRLPRPRPRPSAFPRP	-0.247
RRIRQRPPRLPRPRPRPEQMPRP	-0.00448
RRIRGRPPRLPRPRPRPVNLPRP	-0.152
RRIRPRPPRLPRPRPRPTDRPRP	0.121
RRIRFRPPRLPRPRPRPIDLPRP	-0.164
RRIRDRPPRLPRPRPRPWFSPRP	-0.317
RRIRARPPRLPRPRPRPNTGPRP	-0.0394
RRIRHRPPRLPRPRPRPFMAPRP	-0.548
RRIRARPPRLPRPRPRPMPCPRP	0.535
RRIRRRPPRLPRPRPRPPAVPRP	0.606
RRIRTRPPRLPRPRPRPRMQPRP	0.0874
RRIRYRPPRLPRPRPRPHTEPRP	-0.0196
RRIRERPPRLPRPRPRPTKQPRP	-0.275
RRIRNRPPRLPRPRPRPAQRPRP	-0.0476
RRIRWRPPRLPRPRPRPTFQPRP	0.131
